Assay results taken from patent US20160272683A1 (Novo Nordisk, published 2016).
Numbered stars: 1 amine (or outer) side, 2 acyl side, 3 side chain; on linkers, the order of the positions; unused ones are H or OH. Side chains are listed from the residue outwards. Ends that are not written are not given here. * marks the point of attachment. C20 diacid = O=C(O)CCCCCCCCCCCCCCCCCCC(=O)*; C18 diacid = O=C(O)CCCCCCCCCCCCCCCCC(=O)*; γGlu = O=C(O)[C@H](CCC(=O)[*:2])N[*:1]; AEEA = NCCOCCOCC(=O)O

B1: [des1, 4K(C20 diacid-gGlu), 30S, 31G]mimylin (peptide)
peptide: ASK([γGlu-C20 diacid])LSTAALGRLSAELHELATLPRTETGSGSP-NH2
modifications: N-terminus assumed
SMILES: CC(C)C[C@H](NC(=O)[C@H](C)NC(=O)[C@H](C)NC(=O)[C@@H](NC(=O)[C@H](CO)NC(=O)[C@H](CC(C)C)NC(=O)[C@H](CCCCNC(=O)CC[C@H](NC(=O)CCCCCCCCCCCCCCCCCCC(=O)O)C(=O)O)NC(=O)[C@H](CO)NC(=O)[C@H](C)N)[C@@H](C)O)C(=O)NCC(=O)N[C@@H](CCCNC(=N)N)C(=O)N[C@@H](CC(C)C)C(=O)N[C@@H](CO)C(=O)N[C@@H](C)C(=O)N[C@@H](CCC(=O)O)C(=O)N[C@@H](CC(C)C)C(=O)N[C@@H](Cc1c[nH]cn1)C(=O)N[C@@H](CCC(=O)O)C(=O)N[C@@H](CC(C)C)C(=O)N[C@@H](C)C(=O)N[C@H](C(=O)N[C@@H](CC(C)C)C(=O)N1CCC[C@H]1C(=O)N[C@@H](CCCNC(=N)N)C(=O)N[C@H](C(=O)N[C@@H](CCC(=O)O)C(=O)N[C@H](C(=O)NCC(=O)N[C@@H](CO)C(=O)NCC(=O)N[C@@H](CO)C(=O)N1CCC[C@H]1C(N)=O)[C@@H](C)O)[C@@H](C)O)[C@@H](C)O
notes: mimylin derivative; des1 = residue 1 deleted; also called Ex. #52; 52
B2: [des1, 16K(C20 diacid-gGlu), 30S, 31G]mimylin (peptide)
peptide: ASELSTAALGRLSAK([γGlu-C20 diacid])LHELATLPRTETGSGSP-NH2
modifications: N-terminus assumed
SMILES: CC(C)C[C@H](NC(=O)[C@H](C)NC(=O)[C@H](C)NC(=O)[C@@H](NC(=O)[C@H](CO)NC(=O)[C@H](CC(C)C)NC(=O)[C@H](CCC(=O)O)NC(=O)[C@H](CO)NC(=O)[C@H](C)N)[C@@H](C)O)C(=O)NCC(=O)N[C@@H](CCCNC(=N)N)C(=O)N[C@@H](CC(C)C)C(=O)N[C@@H](CO)C(=O)N[C@@H](C)C(=O)N[C@@H](CCCCNC(=O)CC[C@H](NC(=O)CCCCCCCCCCCCCCCCCCC(=O)O)C(=O)O)C(=O)N[C@@H](CC(C)C)C(=O)N[C@@H](Cc1c[nH]cn1)C(=O)N[C@@H](CCC(=O)O)C(=O)N[C@@H](CC(C)C)C(=O)N[C@@H](C)C(=O)N[C@H](C(=O)N[C@@H](CC(C)C)C(=O)N1CCC[C@H]1C(=O)N[C@@H](CCCNC(=N)N)C(=O)N[C@H](C(=O)N[C@@H](CCC(=O)O)C(=O)N[C@H](C(=O)NCC(=O)N[C@@H](CO)C(=O)NCC(=O)N[C@@H](CO)C(=O)N1CCC[C@H]1C(N)=O)[C@@H](C)O)[C@@H](C)O)[C@@H](C)O
notes: mimylin derivative; des1 = residue 1 deleted; also called Ex. #53; 53
B3: [des1, 19K(C20 diacid-gGlu), 30S, 31G]mimylin (peptide)
peptide: ASELSTAALGRLSAELHK([γGlu-C20 diacid])LATLPRTETGSGSP-NH2
modifications: N-terminus assumed
SMILES: CC(C)C[C@H](NC(=O)[C@H](C)NC(=O)[C@H](C)NC(=O)[C@@H](NC(=O)[C@H](CO)NC(=O)[C@H](CC(C)C)NC(=O)[C@H](CCC(=O)O)NC(=O)[C@H](CO)NC(=O)[C@H](C)N)[C@@H](C)O)C(=O)NCC(=O)N[C@@H](CCCNC(=N)N)C(=O)N[C@@H](CC(C)C)C(=O)N[C@@H](CO)C(=O)N[C@@H](C)C(=O)N[C@@H](CCC(=O)O)C(=O)N[C@@H](CC(C)C)C(=O)N[C@@H](Cc1c[nH]cn1)C(=O)N[C@@H](CCCCNC(=O)CC[C@H](NC(=O)CCCCCCCCCCCCCCCCCCC(=O)O)C(=O)O)C(=O)N[C@@H](CC(C)C)C(=O)N[C@@H](C)C(=O)N[C@H](C(=O)N[C@@H](CC(C)C)C(=O)N1CCC[C@H]1C(=O)N[C@@H](CCCNC(=N)N)C(=O)N[C@H](C(=O)N[C@@H](CCC(=O)O)C(=O)N[C@H](C(=O)NCC(=O)N[C@@H](CO)C(=O)NCC(=O)N[C@@H](CO)C(=O)N1CCC[C@H]1C(N)=O)[C@@H](C)O)[C@@H](C)O)[C@@H](C)O
notes: mimylin derivative; des1 = residue 1 deleted; also called Ex. #54; 54
B4: [N-terminal(C18 diacid-gGlu), des1, 6T, 9V, 14T, 21E, 30T, 31G, 32T]mimylin (peptide)
peptide: {C18 diacid-γGlu}-ASELTTAVLGRLTAELHELETLPRTETGTGTP-NH2
SMILES: CC(C)C[C@H](NC(=O)[C@H](CCC(=O)O)NC(=O)[C@H](C)NC(=O)[C@@H](NC(=O)[C@H](CC(C)C)NC(=O)[C@H](CCCNC(=N)N)NC(=O)CNC(=O)[C@H](CC(C)C)NC(=O)[C@@H](NC(=O)[C@H](C)NC(=O)[C@@H](NC(=O)[C@@H](NC(=O)[C@H](CC(C)C)NC(=O)[C@H](CCC(=O)O)NC(=O)[C@H](CO)NC(=O)[C@H](C)NC(=O)CC[C@H](NC(=O)CCCCCCCCCCCCCCCCC(=O)O)C(=O)O)[C@@H](C)O)[C@@H](C)O)C(C)C)[C@@H](C)O)C(=O)N[C@@H](Cc1c[nH]cn1)C(=O)N[C@@H](CCC(=O)O)C(=O)N[C@@H](CC(C)C)C(=O)N[C@@H](CCC(=O)O)C(=O)N[C@H](C(=O)N[C@@H](CC(C)C)C(=O)N1CCC[C@H]1C(=O)N[C@@H](CCCNC(=N)N)C(=O)N[C@H](C(=O)N[C@@H](CCC(=O)O)C(=O)N[C@H](C(=O)NCC(=O)N[C@H](C(=O)NCC(=O)N[C@H](C(=O)N1CCC[C@H]1C(N)=O)[C@@H](C)O)[C@@H](C)O)[C@@H](C)O)[C@@H](C)O)[C@@H](C)O
notes: mimylin derivative; des1 = residue 1 deleted
B5: [N-terminal(C20 diacid-gGlu-2xOEG), des1, 4G, 9V, 15Q, 21Q, 23Y, 30S, 31G, 32T, 33Y]mimylin (peptide)
peptide: {C20 diacid-γGlu-AEEA-AEEA}-ASGLSTAVLGRLSQELHELQTYPRTETGSGTY-NH2
SMILES: CC(C)C[C@H](NC(=O)CNC(=O)[C@H](CO)NC(=O)[C@H](C)NC(=O)COCCOCCNC(=O)COCCOCCNC(=O)CC[C@H](NC(=O)CCCCCCCCCCCCCCCCCCC(=O)O)C(=O)O)C(=O)N[C@@H](CO)C(=O)N[C@H](C(=O)N[C@@H](C)C(=O)N[C@H](C(=O)N[C@@H](CC(C)C)C(=O)NCC(=O)N[C@@H](CCCNC(=N)N)C(=O)N[C@@H](CC(C)C)C(=O)N[C@@H](CO)C(=O)N[C@@H](CCC(N)=O)C(=O)N[C@@H](CCC(=O)O)C(=O)N[C@@H](CC(C)C)C(=O)N[C@@H](Cc1c[nH]cn1)C(=O)N[C@@H](CCC(=O)O)C(=O)N[C@@H](CC(C)C)C(=O)N[C@@H](CCC(N)=O)C(=O)N[C@H](C(=O)N[C@@H](Cc1ccc(O)cc1)C(=O)N1CCC[C@H]1C(=O)N[C@@H](CCCNC(=N)N)C(=O)N[C@H](C(=O)N[C@@H](CCC(=O)O)C(=O)N[C@H](C(=O)NCC(=O)N[C@@H](CO)C(=O)NCC(=O)N[C@H](C(=O)N[C@@H](Cc1ccc(O)cc1)C(N)=O)[C@@H](C)O)[C@@H](C)O)[C@@H](C)O)[C@@H](C)O)C(C)C)[C@@H](C)O
notes: mimylin derivative; des1 = residue 1 deleted; also called Ex. #120; 120
B6: [N-terminal(C18 diacid-gGlu), des1, 4G, 15Q, 21Q, 23Y, 30S, 31G, 32T, 33Y]mimylin (peptide)
peptide: {C18 diacid-γGlu}-ASGLSTAALGRLSQELHELQTYPRTETGSGTY-NH2
SMILES: CC(C)C[C@H](NC(=O)CNC(=O)[C@H](CO)NC(=O)[C@H](C)NC(=O)CC[C@H](NC(=O)CCCCCCCCCCCCCCCCC(=O)O)C(=O)O)C(=O)N[C@@H](CO)C(=O)N[C@H](C(=O)N[C@@H](C)C(=O)N[C@@H](C)C(=O)N[C@@H](CC(C)C)C(=O)NCC(=O)N[C@@H](CCCNC(=N)N)C(=O)N[C@@H](CC(C)C)C(=O)N[C@@H](CO)C(=O)N[C@@H](CCC(N)=O)C(=O)N[C@@H](CCC(=O)O)C(=O)N[C@@H](CC(C)C)C(=O)N[C@@H](Cc1c[nH]cn1)C(=O)N[C@@H](CCC(=O)O)C(=O)N[C@@H](CC(C)C)C(=O)N[C@@H](CCC(N)=O)C(=O)N[C@H](C(=O)N[C@@H](Cc1ccc(O)cc1)C(=O)N1CCC[C@H]1C(=O)N[C@@H](CCCNC(=N)N)C(=O)N[C@H](C(=O)N[C@@H](CCC(=O)O)C(=O)N[C@H](C(=O)NCC(=O)N[C@@H](CO)C(=O)NCC(=O)N[C@H](C(=O)N[C@@H](Cc1ccc(O)cc1)C(N)=O)[C@@H](C)O)[C@@H](C)O)[C@@H](C)O)[C@@H](C)O)[C@@H](C)O
notes: mimylin derivative; des1 = residue 1 deleted; also called Ex. #110; 110

Tests used:
[1] = target: T1, human calcitonin receptor (human, UniProt P30988 25-474); test: SPA competition vs 125I-calcitonin, membranes with human CTR (Assay VII)
T1 construct: whole, on cells; Assay VII: membranes on SPA beads; also called hCT-R; hCTR
T1 sequence (looked up): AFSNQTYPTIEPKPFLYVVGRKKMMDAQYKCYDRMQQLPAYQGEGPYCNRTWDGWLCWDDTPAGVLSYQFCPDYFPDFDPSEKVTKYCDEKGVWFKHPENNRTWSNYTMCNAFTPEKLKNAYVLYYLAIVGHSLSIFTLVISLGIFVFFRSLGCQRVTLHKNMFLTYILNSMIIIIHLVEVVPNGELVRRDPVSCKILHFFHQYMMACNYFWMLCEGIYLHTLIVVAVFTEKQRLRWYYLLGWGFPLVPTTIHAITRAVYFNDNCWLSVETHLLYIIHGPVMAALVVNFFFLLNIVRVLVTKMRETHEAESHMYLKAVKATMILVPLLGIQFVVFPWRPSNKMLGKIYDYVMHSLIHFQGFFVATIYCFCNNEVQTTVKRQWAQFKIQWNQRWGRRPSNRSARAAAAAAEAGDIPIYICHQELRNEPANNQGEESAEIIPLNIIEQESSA
Protocol: The binding assay was performed using scintillation proximity assay (SPA) beads (RPNQ0001) from PerkinElmer® and cell membranes prepared from a BHK tk'ts 13 cell line was stably transfected with the human calcitonin receptor and a CRE-responsive luciferase reporter gene. Membranes were prepared in the following way; the cells were rinsed with PBS and incubated with Versene for approximately 5 min before harvesting. The cells were flushed with PBS and the cell-suspension was centrifuged for 5 min at 1000 rpm.
(§1) EDTA (pH 7.4, buffer 2). The resulting pellet was resuspended in buffer 2 and protein concentration was tested (BCA protein Assay, Pierce). The homogenate was kept cold during the whole procedure. The membranes were kept at −80° C. until use. Assay was performed in a 384 well Optiplate (PerkinElmer®) in a total volume of 40 ul. Membranes were mixed with SPA beads. Final concentration of membranes 35 ng/μL final and Final concentration of SPA beads was 0.05 mg/well. Test-compounds were dissolved in DMSO and further diluted in assay buffer (50 mM Hepes, pH 7.4, 1 mM CaCl2, 5 mM MgCl2, 0.1% OA and 0.02% Tween20). […] Samples were analyzed on TopCounter™ (Packard). The IC₅₀ was calculated using (one site binding competition analysis) GraphPad Prism5 as a measure of receptor affinity.

[2] = target: T2, human amylin receptor (amylin 3(a) receptor: human calcitonin receptor with RAMP-3) (human, UniProt P30988 25-474; O60896 24-148, limits assumed); test: SPA competition vs 125I-rat amylin, membranes with human CTR + RAMP-3 (Assay V)
T2 construct: whole, on cells; Assay V: membranes of the Amylin 3(a)/CRE-luc BHK cells on SPA beads; also called hAmylin-R
T2 sequence (looked up) 1: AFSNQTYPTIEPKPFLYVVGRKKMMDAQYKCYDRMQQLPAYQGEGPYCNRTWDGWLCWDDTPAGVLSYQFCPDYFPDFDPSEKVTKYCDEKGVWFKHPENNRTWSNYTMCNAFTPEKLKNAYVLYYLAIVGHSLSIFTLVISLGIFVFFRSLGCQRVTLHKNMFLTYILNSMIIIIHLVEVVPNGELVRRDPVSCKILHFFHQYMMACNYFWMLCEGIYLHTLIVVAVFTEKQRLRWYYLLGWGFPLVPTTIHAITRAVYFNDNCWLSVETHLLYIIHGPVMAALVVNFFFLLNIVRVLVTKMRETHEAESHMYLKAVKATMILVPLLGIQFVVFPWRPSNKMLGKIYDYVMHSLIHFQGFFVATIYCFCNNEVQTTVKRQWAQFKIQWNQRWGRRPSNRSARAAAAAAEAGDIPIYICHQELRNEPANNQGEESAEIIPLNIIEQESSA
T2 sequence (looked up) 2: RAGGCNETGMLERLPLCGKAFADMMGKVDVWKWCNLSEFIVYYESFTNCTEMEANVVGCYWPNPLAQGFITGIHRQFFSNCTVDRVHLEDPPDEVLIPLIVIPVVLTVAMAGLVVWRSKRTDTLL
Protocol: as §1, with “The binding assay was performed using scintillation proximity assay (SPA) beads (RPNQ0001) from PerkinElmer and cell membranes from the Amylin 3(a)/CRE-luc cells (as described in Assay (II)) were used. Membranes were prepared in the following way; the cells were rinsed with PBS and incubated with Versene for approximately 5 min before harvesting. The cells were flushed with PBS and the cell-suspension was centrifuged for 5 min at 1000 rpm. […] The” for “EDTA (pH 7.4, buffer 2). The”, “use. The assay” for “use. Assay”, “Optiplate (PerkinElmer)” for “Optiplate (PerkinElmer®)”, “and” for “and Final concentration of”

| Binder | IC50 [1] | IC50 [2] |
| --- | --- | --- |
| B1 | 0.136 nM | 0.724 nM |
| B2 | 0.215 nM | 0.114 nM |
| B3 | 0.085 nM | 0.442 nM |
| B4 | 0.222 nM | 0.309 nM |
| B5 | 0.091 nM | 0.166 nM |
| B6 | 0.057 nM | 0.122 nM |
